From patent US20200199241A1 (Chugai, published 2020) come the findings set out here.

The labels stand for the following.
B1: IgG1-F1276 (antibody)
heavy: QVQLQESGPGLVKPSETLSLTCAVSGHSISHDHAWSWVRQPPGEGLEWIGFISYSGITNYNPSLQGRVTISRDNSKNTLYLQMNSLRAEDTAVYYCARSLARTTAMDYWGEGTLVTVSSASTKGPSVFPLAPSSKSTSGGTAALGCLVKDYFPEPVTVSWNSGALTSGVHTFPAVLQSSGLYSLSSVVTVPSSSLGTQTYICNVNHKPSNTKVDKKVEPKSCDKTHTCPPCPAPELRGGPKVFLFPPKPKDTLYISRAPEVTCVVVDVSHEDPEVKFNWYVDGVEVHNAKTKPREEQYNSTYRVVSVLTVLHQDWLNGKEYKCKVSNKALPAPIEKTISKAKGQPREPQVYTLPPSRDELTKNQVSLTCLVKGFYPSDIAVEWESNGQPENNYKTTPPVLDSDGSFFLYSKLTVDKSRWQQGNVFSCSVMHEALHYHVTKKDLSLSP
light: not shown
notes: EU numbering; copies: 2 + 2
B2: IgG1-F1280 (antibody)
heavy: QVQLQESGPGLVKPSETLSLTCAVSGHSISHDHAWSWVRQPPGEGLEWIGFISYSGITNYNPSLQGRVTISRDNSKNTLYLQMNSLRAEDTAVYYCARSLARTTAMDYWGEGTLVTVSSASTKGPSVFPLAPSSKSTSGGTAALGCLVKDYFPEPVTVSWNSGALTSGVHTFPAVLQSSGLYSLSSVVTVPSSSLGTQTYICNVNHKPSNTKVDKKVEPKSCDKTHTCPPCPAPELRGGPKVFLFPPKPKDTLYISRGPEVTCVVVDVSHEDPEVKFNWYVDGVEVHNAKTKPREEQYNSTYRVVSVLTVLHQDWLNGKEYKCKVSNKALPAPIEKTISKAKGQPREPQVYTLPPSRDELTKNQVSLTCLVKGFYPSDIAVEWESNGQPENNYKTTPPVLDSDGSFFLYSKLTVDKSRWQQGNVFSCSVMHEALDYHVTRKELSLSP
light: not shown
notes: EU numbering; copies: 2 + 2
B3: IgG1-F1282 (antibody)
heavy: QVQLQESGPGLVKPSETLSLTCAVSGHSISHDHAWSWVRQPPGEGLEWIGFISYSGITNYNPSLQGRVTISRDNSKNTLYLQMNSLRAEDTAVYYCARSLARTTAMDYWGEGTLVTVSSASTKGPSVFPLAPSSKSTSGGTAALGCLVKDYFPEPVTVSWNSGALTSGVHTFPAVLQSSGLYSLSSVVTVPSSSLGTQTYICNVNHKPSNTKVDKKVEPKSCDKTHTCPPCPAPELRGGPKVFLFPPKPKDTLYISRNPEVTCVVVDVSHEDPEVKFNWYVDGVEVHNAKTKPREEQYNSTYRVVSVLTVLHQDWLNGKEYKCKVSNKALPAPIEKTISKAKGQPREPQVYTLPPSRDELTKNQVSLTCLVKGFYPSDIAVEWESNGQPENNYKTTPPVLDSDGSFFLYSKLTVDKSRWQQGNVFSCSVMHEALHYHVTKKDLSLSP
light: not shown
notes: EU numbering; copies: 2 + 2
B4: IgG1-F1285 (antibody)
heavy: QVQLQESGPGLVKPSETLSLTCAVSGHSISHDHAWSWVRQPPGEGLEWIGFISYSGITNYNPSLQGRVTISRDNSKNTLYLQMNSLRAEDTAVYYCARSLARTTAMDYWGEGTLVTVSSASTKGPSVFPLAPSSKSTSGGTAALGCLVKDYFPEPVTVSWNSGALTSGVHTFPAVLQSSGLYSLSSVVTVPSSSLGTQTYICNVNHKPSNTKVDKKVEPKSCDKTHTCPPCPAPELRGGPKVFLFPPKPKDTLYITRTPEVTCVVVDVSHEDPEVKFNWYVDGVEVHNAKTKPREEQYNSTYRVVSVLTVLHQDWLNGKEYKCKVSNKALPAPIEKTISKAKGQPREPQVYTLPPSRDELTKNQVSLTCLVKGFYPSDIAVEWESNGQPENNYKTTPPVLDSDGSFFLYSKLTVDKSRWQQGNVFSCSVMHEALHYHVTKKDLSLSP
light: not shown
notes: EU numbering; copies: 2 + 2
B5: IgG1-F1281 (antibody)
heavy: QVQLQESGPGLVKPSETLSLTCAVSGHSISHDHAWSWVRQPPGEGLEWIGFISYSGITNYNPSLQGRVTISRDNSKNTLYLQMNSLRAEDTAVYYCARSLARTTAMDYWGEGTLVTVSSASTKGPSVFPLAPSSKSTSGGTAALGCLVKDYFPEPVTVSWNSGALTSGVHTFPAVLQSSGLYSLSSVVTVPSSSLGTQTYICNVNHKPSNTKVDKKVEPKSCDKTHTCPPCPAPELRGGPKVFLFPPKPKDTLYISRGPEVTCVVVDVSHEDPEVKFNWYVDGVEVHNAKTKPREEQYNSTYRVVSVLTVLHQDWLNGKEYKCKVSNKALPAPIEKTISKAKGQPREPQVYTLPPSRDELTKNQVSLTCLVKGFYPSDIAVEWESNGQPENNYKTTPPVLDSDGSFFLYSKLTVDKSRWQQGNVFSCSVMHEALDYHVTKKDLSLSP
light: not shown
notes: EU numbering; copies: 2 + 2
B6: IgG1-F1283 (antibody)
heavy: QVQLQESGPGLVKPSETLSLTCAVSGHSISHDHAWSWVRQPPGEGLEWIGFISYSGITNYNPSLQGRVTISRDNSKNTLYLQMNSLRAEDTAVYYCARSLARTTAMDYWGEGTLVTVSSASTKGPSVFPLAPSSKSTSGGTAALGCLVKDYFPEPVTVSWNSGALTSGVHTFPAVLQSSGLYSLSSVVTVPSSSLGTQTYICNVNHKPSNTKVDKKVEPKSCDKTHTCPPCPAPELRGGPKVFLFPPKPKDTLYISRNPEVTCVVVDVSHEDPEVKFNWYVDGVEVHNAKTKPREEQYNSTYRVVSVLTVLHQDWLNGKEYKCKVSNKALPAPIEKTISKAKGQPREPQVYTLPPSRDELTKNQVSLTCLVKGFYPSDIAVEWESNGQPENNYKTTPPVLDSDGSFFLYSKLTVDKSRWQQGNVFSCSVMHEALDYHVTRKELSLSP
light: not shown
notes: EU numbering; copies: 2 + 2
B7: IgG1-F1287 (antibody)
heavy: QVQLQESGPGLVKPSETLSLTCAVSGHSISHDHAWSWVRQPPGEGLEWIGFISYSGITNYNPSLQGRVTISRDNSKNTLYLQMNSLRAEDTAVYYCARSLARTTAMDYWGEGTLVTVSSASTKGPSVFPLAPSSKSTSGGTAALGCLVKDYFPEPVTVSWNSGALTSGVHTFPAVLQSSGLYSLSSVVTVPSSSLGTQTYICNVNHKPSNTKVDKKVEPKSCDKTHTCPPCPAPELRGGPKVFLFPPKPKDTLYITRTPEVTCVVVDVSHEDPEVKFNWYVDGVEVHNAKTKPREEQYNSTYRVVSVLTVLHQDWLNGKEYKCKVSNKALPAPIEKTISKAKGQPREPQVYTLPPSRDELTKNQVSLTCLVKGFYPSDIAVEWESNGQPENNYKTTPPVLDSDGSFFLYSKLTVDKSRWQQGNVFSCSVMHEALDYHVTKKDLSLSP
light: not shown
notes: EU numbering; copies: 2 + 2
B8: IgG1-F1277 (antibody)
heavy: QVQLQESGPGLVKPSETLSLTCAVSGHSISHDHAWSWVRQPPGEGLEWIGFISYSGITNYNPSLQGRVTISRDNSKNTLYLQMNSLRAEDTAVYYCARSLARTTAMDYWGEGTLVTVSSASTKGPSVFPLAPSSKSTSGGTAALGCLVKDYFPEPVTVSWNSGALTSGVHTFPAVLQSSGLYSLSSVVTVPSSSLGTQTYICNVNHKPSNTKVDKKVEPKSCDKTHTCPPCPAPELRGGPKVFLFPPKPKDTLYISRAPEVTCVVVDVSHEDPEVKFNWYVDGVEVHNAKTKPREEQYNSTYRVVSVLTVLHQDWLNGKEYKCKVSNKALPAPIEKTISKAKGQPREPQVYTLPPSRDELTKNQVSLTCLVKGFYPSDIAVEWESNGQPENNYKTTPPVLDSDGSFFLYSKLTVDKSRWQQGNVFSCSVMHEALDYHVTRKELSLSP
light: not shown
notes: EU numbering; copies: 2 + 2
B9: IgG1-F1284 (antibody)
heavy: QVQLQESGPGLVKPSETLSLTCAVSGHSISHDHAWSWVRQPPGEGLEWIGFISYSGITNYNPSLQGRVTISRDNSKNTLYLQMNSLRAEDTAVYYCARSLARTTAMDYWGEGTLVTVSSASTKGPSVFPLAPSSKSTSGGTAALGCLVKDYFPEPVTVSWNSGALTSGVHTFPAVLQSSGLYSLSSVVTVPSSSLGTQTYICNVNHKPSNTKVDKKVEPKSCDKTHTCPPCPAPELRGGPKVFLFPPKPKDTLYISRNPEVTCVVVDVSHEDPEVKFNWYVDGVEVHNAKTKPREEQYNSTYRVVSVLTVLHQDWLNGKEYKCKVSNKALPAPIEKTISKAKGQPREPQVYTLPPSRDELTKNQVSLTCLVKGFYPSDIAVEWESNGQPENNYKTTPPVLDSDGSFFLYSKLTVDKSRWQQGNVFSCSVMHEALDYHVTKKDLSLSP
light: not shown
notes: EU numbering; copies: 2 + 2
B10: IgG1-F1286 (antibody)
heavy: QVQLQESGPGLVKPSETLSLTCAVSGHSISHDHAWSWVRQPPGEGLEWIGFISYSGITNYNPSLQGRVTISRDNSKNTLYLQMNSLRAEDTAVYYCARSLARTTAMDYWGEGTLVTVSSASTKGPSVFPLAPSSKSTSGGTAALGCLVKDYFPEPVTVSWNSGALTSGVHTFPAVLQSSGLYSLSSVVTVPSSSLGTQTYICNVNHKPSNTKVDKKVEPKSCDKTHTCPPCPAPELRGGPKVFLFPPKPKDTLYITRTPEVTCVVVDVSHEDPEVKFNWYVDGVEVHNAKTKPREEQYNSTYRVVSVLTVLHQDWLNGKEYKCKVSNKALPAPIEKTISKAKGQPREPQVYTLPPSRDELTKNQVSLTCLVKGFYPSDIAVEWESNGQPENNYKTTPPVLDSDGSFFLYSKLTVDKSRWQQGNVFSCSVMHEALDYHVTRKELSLSP
light: not shown
notes: EU numbering; copies: 2 + 2
B11: IgG1-F1278 (antibody)
heavy: QVQLQESGPGLVKPSETLSLTCAVSGHSISHDHAWSWVRQPPGEGLEWIGFISYSGITNYNPSLQGRVTISRDNSKNTLYLQMNSLRAEDTAVYYCARSLARTTAMDYWGEGTLVTVSSASTKGPSVFPLAPSSKSTSGGTAALGCLVKDYFPEPVTVSWNSGALTSGVHTFPAVLQSSGLYSLSSVVTVPSSSLGTQTYICNVNHKPSNTKVDKKVEPKSCDKTHTCPPCPAPELRGGPKVFLFPPKPKDTLYISRAPEVTCVVVDVSHEDPEVKFNWYVDGVEVHNAKTKPREEQYNSTYRVVSVLTVLHQDWLNGKEYKCKVSNKALPAPIEKTISKAKGQPREPQVYTLPPSRDELTKNQVSLTCLVKGFYPSDIAVEWESNGQPENNYKTTPPVLDSDGSFFLYSKLTVDKSRWQQGNVFSCSVMHEALDYHVTKKDLSLSP
light: not shown
notes: EU numbering; copies: 2 + 2
B12: IgG1-F1279 (antibody)
heavy: QVQLQESGPGLVKPSETLSLTCAVSGHSISHDHAWSWVRQPPGEGLEWIGFISYSGITNYNPSLQGRVTISRDNSKNTLYLQMNSLRAEDTAVYYCARSLARTTAMDYWGEGTLVTVSSASTKGPSVFPLAPSSKSTSGGTAALGCLVKDYFPEPVTVSWNSGALTSGVHTFPAVLQSSGLYSLSSVVTVPSSSLGTQTYICNVNHKPSNTKVDKKVEPKSCDKTHTCPPCPAPELRGGPKVFLFPPKPKDTLYISRGPEVTCVVVDVSHEDPEVKFNWYVDGVEVHNAKTKPREEQYNSTYRVVSVLTVLHQDWLNGKEYKCKVSNKALPAPIEKTISKAKGQPREPQVYTLPPSRDELTKNQVSLTCLVKGFYPSDIAVEWESNGQPENNYKTTPPVLDSDGSFFLYSKLTVDKSRWQQGNVFSCSVMHEALHYHVTKKDLSLSP
light: not shown
notes: EU numbering; copies: 2 + 2

The test deals with T1, soluble human FcRn complexed with β2-microglobulin (human, UniProt P61769 21-119, limits assumed).
T1 construct: also called hFcRn
T1 sequence (chain, as listed by the source limits assumed, chain 1 of 2): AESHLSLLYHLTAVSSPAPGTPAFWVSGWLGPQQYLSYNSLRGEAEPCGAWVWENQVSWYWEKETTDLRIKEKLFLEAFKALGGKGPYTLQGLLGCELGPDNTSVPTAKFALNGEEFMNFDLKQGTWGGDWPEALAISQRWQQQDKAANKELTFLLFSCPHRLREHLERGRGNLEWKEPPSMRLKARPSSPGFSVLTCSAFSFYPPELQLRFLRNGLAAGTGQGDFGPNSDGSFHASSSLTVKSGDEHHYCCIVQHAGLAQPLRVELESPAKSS
T1 sequence (P61769 21-119 limits assumed, chain 2 of 2): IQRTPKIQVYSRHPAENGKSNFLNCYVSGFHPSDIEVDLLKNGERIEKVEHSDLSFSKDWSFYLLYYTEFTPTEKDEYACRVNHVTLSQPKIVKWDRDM
The experiment in a line: Biacore SPR, pH 7.0.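 Also: test antibodies captured on a Protein L chip with human FcRn flowed over as analyte, KD obtained as the ratio of dissociation to association rate constants.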 On the technique in general: Surface plasmon resonance follows binding to a sensor surface in real time, without labels.
As a reminder, the Kd is the concentration at which binding is half-saturated. B1 showed a Kd of 102 nM.

As for B2, the Kd was found to be 209 nM.

Molecule B3 gave a Kd of 76.9 nM.

The molecule B4 displayed a Kd of 93.6 nM.

For the molecule B5, the Kd is 174 nM.

In turn, B6 registered a Kd of 134 nM.

In turn, B7 had a Kd of 150 nM.

Molecule B8 came in with a Kd of 169 nM.

Molecule B9 yielded a Kd of 112 nM.

In the case of B10, binding was put at a Kd of 157 nM.

In turn, B11 showed a Kd of 140 nM.

Regarding B12, the Kd came to 123 nM.
